Data on 21 substances can be found in patent US20210163536A1.

By Ki is commonly meant a dissociation constant, usually derived from enzyme kinetics or from competition with a known ligand. Higher therefore signals weaker binding.

The target of experiment [1] is human melanocortin-3 receptor (human) (UniProt P41968). As to the kind of experiment: competition with [125I]-NDP-alpha-MSH, CHO-K1 cell membranes.
Experiment [2] deals with human melanocortin-4 receptor (human) (UniProt P32245). The description is as above.
Experiment [3] concerns the target human melanocortin-5 receptor (human) (UniProt P33032). Described as above.
Experiment [4] has as its target human melanocortin-1 receptor (human) (UniProt Q01726). The description is as above.
The target of experiment [5] is human melanocortin-3 receptor (human) (UniProt P41968). The experiment is described as follows: cell-based or functional assay.
The target in experiment [6] is human melanocortin-4 receptor (human) (UniProt P32245). The experiment is described as follows: cell-based or functional assay.
Experiment [7] deals with human melanocortin-5 receptor (human) (UniProt P33032). The experiment is described as follows: cell-based or functional assay.
Experiment [8] has as its target human melanocortin-1 receptor (human) (UniProt Q01726). As to the kind of experiment: cell-based or functional assay.

human melanocortin-3 receptor (human), sequence (P41968 whole entry): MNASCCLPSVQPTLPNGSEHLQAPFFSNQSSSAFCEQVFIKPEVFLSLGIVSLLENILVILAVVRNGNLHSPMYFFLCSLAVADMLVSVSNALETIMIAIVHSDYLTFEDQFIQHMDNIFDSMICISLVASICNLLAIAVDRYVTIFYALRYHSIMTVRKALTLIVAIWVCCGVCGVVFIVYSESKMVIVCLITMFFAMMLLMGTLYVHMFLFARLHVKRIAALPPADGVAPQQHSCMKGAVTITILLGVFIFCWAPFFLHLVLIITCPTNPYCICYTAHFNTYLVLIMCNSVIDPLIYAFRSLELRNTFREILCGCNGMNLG
human melanocortin-5 receptor (human), sequence (P33032 whole entry): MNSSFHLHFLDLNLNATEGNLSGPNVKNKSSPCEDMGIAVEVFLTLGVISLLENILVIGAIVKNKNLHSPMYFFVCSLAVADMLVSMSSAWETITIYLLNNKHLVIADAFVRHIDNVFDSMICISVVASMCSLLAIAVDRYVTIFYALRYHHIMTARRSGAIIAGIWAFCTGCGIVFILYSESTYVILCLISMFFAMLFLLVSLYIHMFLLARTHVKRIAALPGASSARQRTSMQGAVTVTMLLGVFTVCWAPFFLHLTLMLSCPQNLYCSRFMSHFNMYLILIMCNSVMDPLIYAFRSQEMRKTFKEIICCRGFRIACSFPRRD
human melanocortin-4 receptor (human), sequence (P32245 whole entry): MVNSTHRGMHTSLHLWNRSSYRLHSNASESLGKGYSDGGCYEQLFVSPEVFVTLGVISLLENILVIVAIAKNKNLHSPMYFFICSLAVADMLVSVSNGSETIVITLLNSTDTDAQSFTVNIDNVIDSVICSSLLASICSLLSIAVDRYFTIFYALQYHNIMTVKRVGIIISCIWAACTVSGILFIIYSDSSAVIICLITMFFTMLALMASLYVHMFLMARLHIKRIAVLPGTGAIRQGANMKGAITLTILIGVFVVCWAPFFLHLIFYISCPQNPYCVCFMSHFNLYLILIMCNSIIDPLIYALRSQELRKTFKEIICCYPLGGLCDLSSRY
human melanocortin-1 receptor (human), sequence (Q01726 whole entry): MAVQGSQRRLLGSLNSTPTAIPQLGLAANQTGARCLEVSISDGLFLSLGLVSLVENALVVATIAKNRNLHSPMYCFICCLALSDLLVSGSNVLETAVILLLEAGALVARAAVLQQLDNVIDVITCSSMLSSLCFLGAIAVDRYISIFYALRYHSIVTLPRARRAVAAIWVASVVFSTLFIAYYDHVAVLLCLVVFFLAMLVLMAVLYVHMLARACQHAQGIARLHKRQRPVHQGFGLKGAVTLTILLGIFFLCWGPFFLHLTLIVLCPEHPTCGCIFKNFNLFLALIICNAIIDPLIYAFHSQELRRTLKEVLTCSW

With “Hydantoin(C(O)-(D-Arg-Gly))-cyclo(Cys-Glu-His-D-Phe-Arg-Trp-Cys)-NH2 (peptide)”, the Ki in experiment [1] amounted to 0.124 µM; in experiment [2], 0.00295 µM; in experiment [3], 2.26 µM; in experiment [4], 0.00949 µM.
Consider “Hydantoin(C(O)-(D-Arg-Gly))-cyclo(Cys-Glu-His-D-Phe-Arg-Trp-Cys)-NH2 (peptide; unit assumed)”, for which the EC50, intracellular cyclic AMP (cAMP) levels is 0.0171 µM in experiment [5], 0.00016 µM in experiment [6], 2.71 µM in experiment [7] and 0.018 µM in experiment [8].
With “Hydantoin(C(O)-(Gly-D-Arg))-cyclo(Cys-Glu-His-D-Phe-Arg-Trp-Cys)-NH2 (peptide)”, the Ki in experiment [1] was 0.078 µM; in experiment [2], 0.00177 µM; in experiment [3], 4.54 µM; in experiment [4] it was 0.0043 µM.
With “Hydantoin(C(O)-(Gly-D-Arg))-cyclo(Cys-Glu-His-D-Phe-Arg-Trp-Cys)-NH2 (peptide; unit assumed)”, the EC50, intracellular cyclic AMP (cAMP) levels amounted to 0.0103 µM in experiment [5], 0.000125 µM in experiment [6], 7.44 µM in experiment [7] and 0.0129 µM in experiment [8].
In the case of “Hydantoin(C(O)-(Nle-Gly))-cyclo(Cys-D-Ala-His-D-Phe-Arg-Trp-Pen)-NH2 (peptide)”, the values for the Ki in experiment [2], in experiment [3] and in experiment [4] were 0.00353 µM, 0.0271 µM and 0.0129 µM, respectively.
With “Hydantoin(C(O)-(Nle-Gly))-cyclo(Cys-D-Ala-His-D-Phe-Arg-Trp-Pen)-NH2 (peptide; unit assumed)”, the EC50, intracellular cyclic AMP (cAMP) levels worked out at 0.0215 µM in experiment [5], 0.000584 µM in experiment [6], 0.352 µM in experiment [7] and 0.017 µM in experiment [8].
Take “cyclo[Hydantoin(C(O)-(Asp-A3c))-D-2-Nal-Arg-Trp-Lys]-NH2 (peptide)”: the inhibitory constant (Ki) amounted to 1.92 µM in experiment [1], 0.42 µM in experiment [2], 2.88 µM in experiment [3] and 7.57 µM in experiment [4].
Regarding “cyclo[Hydantoin(C(O)-(Asp-A5c))-D-2-Nal-Arg-Trp-Lys]-NH2 (peptide)”, the Ki in experiment [1] is 2.39 µM; in experiment [4] it was 9.94 µM.
Consider “cyclo[Hydantoin(C(O)-(Asp-A6c))-D-2-Nal-Arg-Trp-Lys]-NH2 (peptide)”, for which the Ki is 1.48 µM in experiment [1], 0.0165 µM in experiment [2], 0.451 µM in experiment [3] and 2.17 µM in experiment [4].
In the same order, the values of “cyclo[Hydantoin(C(O)-(Asp-Aic))-D-2-Nal-Arg-Trp-Lys]-NH2 (peptide)” are 2.63 µM, 0.0358 µM, 1.16 µM and 9.03 µM.
As for “cyclo[Hydantoin(C(O)-(Asp-Apc))-D-2-Nal-Arg-Trp-Lys]-NH2 (peptide)”, the Ki worked out at 2.76 µM in experiment [1], 0.266 µM in experiment [2] and 1.28 µM in experiment [4].
In the same order, the values of “cyclo[Hydantoin(C(O)-(Asp-D-Ala))-His-D-Phe-Arg-Trp-Dap]-NH2 (peptide)” are 1.82 µM, 0.0199 µM and 0.0666 µM.
With “cyclo[Hydantoin(C(O)-(Asp-D-Ala))-His-D-Phe-Arg-Trp-Dap]-NH2 (peptide; unit assumed)”, the figures for the EC50, intracellular cyclic AMP (cAMP) levels in experiment [5] and in experiment [6] were 0.0493 µM and 0.00212 µM, respectively.
As for “cyclo[Hydantoin(C(O)-(Asp-D-Ala))-His-D-Phe-Arg-Trp-Orn]-NH2 (peptide)”, the Ki in experiment [1] turned out to be 0.576 µM; in experiment [2], 0.00781 µM; in experiment [3] it was 6.4 µM; in experiment [4], 0.0377 µM. The substance also returned an EC50, intracellular cyclic AMP (cAMP) levels in experiment [5] of 0.0886 µM.
On to “cyclo[Hydantoin(C(O)-(Asp-D-Ala))-His-D-Phe-Arg-Trp-Orn]-NH2 (peptide; unit assumed)”, for which the EC50, intracellular cyclic AMP (cAMP) levels was found to be 0.0045 µM in experiment [6], 9.3 µM in experiment [7] and 0.0566 µM in experiment [8].
Turning to “cyclo[Hydantoin(C(O)-(Asp-His))-D-2-Nal-Arg-Trp-Lys]-NH2 (peptide)”, in experiment [4], the Ki amounted to 0.2 µM.
For the substance “cyclo[Hydantoin(C(O)-(Glu-D-Ala))-His-D-Phe-Arg-Trp-Dab]-NH2 (peptide)”, the Ki came to 0.0905 µM in experiment [1], 0.0127 µM in experiment [2], 0.877 µM in experiment [3] and 0.028 µM in experiment [4].
For the substance “cyclo[Hydantoin(C(O)-(Glu-D-Ala))-His-D-Phe-Arg-Trp-Dap]-NH2 (peptide)”, the Ki was 0.863 µM in experiment [1], 0.00497 µM in experiment [2] and 0.0164 µM in experiment [4].
Consider “cyclo[Hydantoin(C(O)-(Glu-D-Ala))-His-D-Phe-Arg-Trp-Dap]-NH2 (peptide; unit assumed)”, for which the EC50, intracellular cyclic AMP (cAMP) levels was 0.0182 µM in experiment [5], 0.000182 µM in experiment [6], above 10 µM in experiment [7] and 0.0567 µM in experiment [8].
Regarding “cyclo[Hydantoin(C(O)-(Glu-D-Ala))-His-D-Phe-Arg-Trp-Orn]-NH2 (peptide)”, the Ki is 2.84 µM in experiment [1], 0.0524 µM in experiment [2] and 0.0604 µM in experiment [4].
For the substance “cyclo[Hydantoin(C(O)-(Glu-D-Ala))-His-D-Phe-Arg-Trp-Orn]-NH2 (peptide; unit assumed)”, the EC50, intracellular cyclic AMP (cAMP) levels in experiment [5] was determined as 0.0392 µM; in experiment [6], 0.00494 µM.
